B1: C018 (antibody, V domains shown)
VH: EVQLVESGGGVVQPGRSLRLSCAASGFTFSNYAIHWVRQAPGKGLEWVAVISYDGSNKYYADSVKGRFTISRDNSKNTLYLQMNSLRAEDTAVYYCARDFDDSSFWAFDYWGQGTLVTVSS
VL: DIQLTQSPSSLSASVGDRVTITCRASQSIRSYLNWYQQKPGKAPKLLIYAASSLQSGVPSRFSGSGSGTDFTLTISSLQPDDFATYYCQQSYSTPPATFGQGTKLEIK
B2: 2M-14E5 (antibody, V domains shown)
VH: EVQLVESGGGVVQPGRSLRLSCAASGFTFSTYSMHWVRQAPGKGLEWVAVISYDGSNKYYADSVKGRFTISRDNSKNTLYLQVNSLRAEDTAVYYCARSGGGSYRGPFDYWGQGTLVTVSS
VL: AIRMTQSPSFLSVSVGDRVTITCRASQGISSYLAWYQQKPGKAPKLLIYAASTLQSGVPSRFSGSGSGTEFTLTISSLQPEDFATYYCQQLNSYVTFGGGTKVEIK
B3: 9A1 (antibody, V domains shown)
VH: EVQLLESGGGVVQPGRSLRLSCVVSGFTFNNYGMHWVRQAPGKGLEWVAVISYEGSVKYYGDHVDGRFTISRDPFKNTLYLHMNNLRPDDTAVYYCAKVSAIFWLGQGLSPIDVWGQGTTVTVSS
VL: DIVMTQSPATLSASPGERVTLSCRASQNIRNNLAWYQQKPGQAPRLLIHGASTRAAGAPARFSGSGSDTQFTLTVSSLQSEDFAVYYCHQYSKWPVTFGGGTKVDIK
B4: 2M-10B11 (antibody, V domains shown)
VH: EVQLVESGGGLVQPGGSLRLSCAASGFTVSSNYMSWVRQAPGKGLEWVSVIYSGGSTYYADSVKGRFTISRDNSKNTLYLQMNSLRAEDTAVYYCARATWLRGVMDVWGQGTTVTVSS
VL: QSALTQPHSVSESPGKTVTISCTGSSGSIASNYVQWYQQRPGSAPTTVIYEDNQRPSGVPDRFSGSIDSSSNSASLTISGLKTEDEADYYCQSYDSSNHWVFGGGTKLTVL
B5: C021 (antibody, V domains shown)
VH: QVQLQESGPGLVKPSQTLSLTCTVSGGSISSGGYYWSWIRQHPGKGLEWIGYIYYSGSTYYNPSLKSRVTISVDTSKNQFSLKLSSVTAADTAVYYCARVWQYYDSSGSFDYWGQGTLVTVSS
VL: not shown
B6: 0304-4A10 (antibody, V domains shown)
VH: EVQLVESGGGLVQPGGSLRLSCAASGFTFSTYAMHWVRQAPGKGLEYVSGISSNGGSTYYANSVKGRFTISRDNSKNTLYIQMGSLRAEDMAVYYCARSSSRGFDYWGQGTLVTVSS
VL: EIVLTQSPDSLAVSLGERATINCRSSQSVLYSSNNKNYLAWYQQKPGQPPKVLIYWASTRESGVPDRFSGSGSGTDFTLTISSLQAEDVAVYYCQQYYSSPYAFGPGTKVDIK

Experiments:
[1] = target: T1, SARS CoV-2 spike protein (antigen of the mAb binding affinity values) (SARS CoV-2, UniProt P0DTC2 14-1213); assay: assay not described; mAb; binding locale Spike RBD
[2] = target: T1, SARS CoV-2 spike protein (antigen of …); assay: assay not described; mAb; binding locale Spike S2

Row | Binder | mAb Binding Affinity [1] [ng/mL] | mAb Binding Affinity [2] [ng/mL]
1 | B1 | 1.53 | –
2 | B2 | – | 7
3 | B3 | – | 5
4 | B4 | 5 | –
5 | B5 | 1.25 | –
6 | B6 | – | 3

Source: patent publication US20240254203A1 (ACHELOIS BIOPHARMA, published 2024)
